Source: the DeepSol protein solubility set

assay: soluble on expression in E. coli; label from the status in PepcDB or PDB records

Sequence	soluble on expression in E. coli
MDALIMAGGKGTRLKENVEKPILNICEKPMIDYVIDSLLNSKIEKIYVAVSIHTPKTKEYLEKKYRLDRNYNPKIDIICTSGTNYVDDLNECMEFFKEPFLILSSDIPTIKPKVINSIIQDYLFVNNSCNRIESFCVVTKDDDYVGTPSINMGGYIPLGINILTPKHGEQTEILHVIKDIIVNVNTLSDKKLVETLINKVVELEHHHHHH	soluble
MSLAFHEGLAAHLATGVTTTCHAWAIDRADGVVMGFTDHDRGLVFEGIDFRADSGLSALALQRGTGLAVDNSEAIGALTDAAIREADIDAGRFDGAGVRAWLVNWTDVAQRQLMFRGTIGEIRRAGGAFTAELRGLTEALNQPRGRVYQTPCGAVLGDAACGVDLGAPGYAAEAEVLGVEEGQRLVLPGLPDFEAGWFARGRLVVLDGAAEGLSGVVKRDVIAEGARHVDLWQALRAPLSVGDRIRIEAGCDKRMETCRYKFNNLLNYQGFPDIPGEDWMTVMPAQSGATGGGSRREGHHHHHH	soluble
AIASIPFSNTHYRIPQGFGNLLEGLTREILREQPDNIPAFAAAYFESLLEKREKTNFDPAEWGSKVEDRFYNNHAFEEQEPPEKSDPKQEESQISGKEEETSVTILDSSEEDKEKEEVAAVKIQAAFRGHIAREEAKKMKTNSLQNEEKEENK	soluble
MGSDKIHHHHHHMAGEPRLGRTGPRVSRVGLGLWQFGSPMWGGKALSADVLARGLSIAVEEGINLLDTAEVYGMGSSERMLGEALKRLNAREDFVIVSKVAGFRSTAGDIVKGARGIAGRLSSAPDVILHHWPPPVYSRLCSVVRGLEQAVNEGLASYYGFSNYGEDLLGDALSCTRRLEPVADQILYNLAYRTPEQRLIPLLHQHGMTPIAWSPLAKGALAGFKGEPTRAQAGDPVFRTALEDTGLQEVLESVARRLGASKASVALAWVAYKGAVPIVGWRRPERVREAAAAARLKLSEEDVALLDEASKRYVTLWGSSYSPPGLRRIRLIPGALQRLAIRLWGGI	not soluble
MGSDKIHHHHHHDSLTESSSNTFWQTPDDALMALASCYDALQSNQLYNSDQYSLGPLYMDCISDNGGHFNWSGWMEGYDMAMGIHTPSSSIIGSYWKDCYEVISRCNVLIANIDRVDMDASQKAIYQAEAKTIRALMYINLTMTYQDVPFLTAPLTIDEAECEKTDRAAIVAHVMTDLQDAAEVLPQNASSRGHITKGAALSLLGRVALYNEKWDDAIAAYKQVQGLGYSLDPSYAKLFTQSGETSPEIIFAVRYEGPGMSEGAAFNAHWNTPLEAMNGTIDLADAYYCKDGKPTTDTKIAELNGGGGLDVSKPNPAHFENRDPRLYSTLFVPGMLWNGKGGIDTSASNPYANVYGGAAASLSTVYVYKYFDPTDTSNSWDNGQDFYVVRYAEVLLSLAEAMVQKGGYVYSDVTALVNEVRQRADVNMPTVEEVEGTSLSKDELLEVIKHERRVELAFEGLRLFDLYRWKELDKAVANIENERTMYGLAYEARKFNGERDYVWPLPTAELDTNKKLVQHDLWK	not soluble
MGSDKIHHHHHHMKWLLFPARIVARTRPNLFSLYRRSVSQYLRPRTIQNLQSMAQTPELKTKLFKPLVWIDCEMTGLDHVNDRIIEICCIITDGHLAPVKAADGQGDSHYESVIHYGPEVMNKMNEWCIEHHGNSGLTAKVLASEKTLAQVEDELLEYIQRYIPDKNVGVLAGNSVHMDRLFMVREFPKVIDHLFYRIVDVSSIMEVARRHNPALQARNPKKEAAHTAYSDIKESIAQLQWYMDNYLKPPQETESVESIGSEQPESPSSSTSSLKRQRTDF	not soluble
MGSDKIHHHHHHAEYIHVIPADASAVASINLNSLADKAGLNDKQNEGMKQKMMEALKSGMNAAAFQQLEKIMKNPSQSGIDVKAPVFVFTSKTFISPTIVAKVSNIEDLRASLDLMAKEGICQPIAEEEGYSFTSLQKNNLLVFNENAAVLTEAYGTSQMDVAKQTISTLLKQTEENSIASNGSFRKMQDQKGDINFFASMDAVPKMYTQQISLGLSSQIDLSEVKAVGNLNFEKGKIALQIETYSDNAETDALLKKQAQAVKKLNTTFLQNFPESTLAFLNIGVNGAAFYDLLFNNEEFRRNVSLAKADEVKSLFASFDGDISIGLINVTLNSVPTFAAYADAKNGNALKALYDNKKQLKLGKNEDIIQLGENEYVYKSRATNVFFGIRNKQMYATNDELLYKSISKPVEKSIKDAGYVSDMKGKNVFFVINMDAILDLPVVKMMAGFGGEEYQTYYKLASKISYIEAFSDSEGKTETAILLKNKDDNALKQIVDFAKQFAGM	not soluble
MSREDELLEKLDECENATAFLQVSNKIINLKLKALLPSVFVQDDLVKEYAVDPLLREDGPLVTTDVVSKLMFAMGKISLQTYADIGLYDQVLEYVVTQPEKIAFTDDVIYDFIKNQAVLSSQQDCFYLESINQLKFSSFESFSQMRYESLIKTVLKLSCEMLIERIEE	not soluble
